Molecular target: NtFD1-Flag (Nicotiana tabacum)
Experiment: native gel or EMSA; extract of N. benthamiana leaves expressing NtFD1-Flag loaded directly onto a native PAGE gel, then western blotting; native protein marker GAPDH used for size

With NtFD1-Flag (natural protein) the stoichiometry N was 4.

— paper PMC10583550
